# Measured values reported in patent US8987192B2, “Potent and selective mediators of cholesterol efflux” (The Regents of the University of California, priority 2006, dated 2015).
# “Also recorded” adds a separate entry of the source. Where no end group is shown, it is not given here. [ ]: non-standard residue; d: D form.
# What was measured:
# [1] = scaled values = (raw log(P) + 2.061)/4.484; cited from earlier work
# ABCA1 [2] = target: ABCA1 (Mus musculus, UniProt P41233); assay: Cholesterol efflux from [3H]cholesterol-labeled ABCA1-expressing J774 mouse macrophages; assay type: cell-based; set-up: to upregulate cellular ABCA1 protein; endogenous in cells; host or cells: J774 mouse macrophages; details: for cholesterol efflux from macrophages not induced for ABCA1 (non-specific): no cAMP; for ABCA1-dependent cholesterol efflux: macrophages with vs without cAMP
# Protocol: In some embodiments, a polypeptide known to mediate cholesterol efflux (e.g., helix 9/10 of Apo A-I) is used to screen for additional mediators of cholesterol efflux in a cell based assay. For example, cell lines in which cholesterol efflux can be enhanced using a cAMP analog that up-regulates ABCA1 protein expression (e.g., J774 macrophages) can conveniently be used to assess the ability of a polypeptide of the present invention to mediate cholesterol efflux. The cells are incubated with labeled cholesterol (e.g., [^3H]cholesterol) under conditions appropriate for cholesterol uptake by the cells. Thus, cAMP or cAMP analogs (e.g., CPT-cAMP) are incubated with the cells for a suitable time before the initiation of cellular cholesterol efflux, i.e., prior to contacting the cells with a test polypeptide. Measurement of labeled cholesterol appearing in the medium is used to determine the cholesterol efflux mediating activity of the test polypeptide.
# J774 mouse macrophages labeled with [^3H]cholesterol were treated (20 h) with 22-hydroxycholesterol (10 μM)/cis-retinoic acid (10 μM) to upregulate cellular ABCA1 protein.
# Mouse macrophages were labeled with [^3H]cholesterol and treated with a cAMP analog to induce ABCA1 expression. […] Km values were calculated using the Michaelis-Menton equation and GraphPad Prism4 software.
# Inverted sequence peptides synthesized with all L-amino acids and all D-amino acids were tested for cholesterol efflux activity using ABCA1 expressing J774 macrophages.
# Two peptide analogs were engineered; the first replacing glutamic acid residues (E) at position 8 and 15 with aspartic acid residues (D), i.e., E8, 15>D polypeptides, and the second, replacing E1, 7, 8, 15, 18, 19 with D, i.e., all D (Asp) polypeptide. Cholesterol efflux activity was determined using J774 macrophages treated with and without a cAMP analog to modulate ABCA1 expression.
# The impact of the A12>L substitution was also tested for activity, which also expanded non-polar surface area.
# 1-palmitoyl-2-oleoyl-phosphatidylcholine (POPC) was used to evaluate the cholesterol efflux properties of a formulated polypeptide of the present invention. […] To test cholesterol efflux activity, J774 mouse macrophages were labeled with [^3H]cholesterol and treated with and without cAMP to modulate ABCA1 expression.
# ABCA1 [3] = assay: Cholesterol efflux in the absence and presence of ABCA1 (mouse macrophages and HeLa cells transfected with ABCA1 cDNA); assay type: cell-based; details: 8 hours, saturating peptide >30-fold Km; for requirement of ABCA1 for cholesterol efflux activity: mouse macrophages and ABCA1-transfected HeLa
# Description: The large excess of polypeptide was provided to determine the extent (if any) of non-specific efflux, in the absence of ABCA1 induction.
# [4] = target: ABCA1 of J774 mouse macrophages (mouse, UniProt P41233 1-2261); assay: cell-based or functional assay
# ABCA1 of J774 mouse macrophages, sequence (P41233 whole entry): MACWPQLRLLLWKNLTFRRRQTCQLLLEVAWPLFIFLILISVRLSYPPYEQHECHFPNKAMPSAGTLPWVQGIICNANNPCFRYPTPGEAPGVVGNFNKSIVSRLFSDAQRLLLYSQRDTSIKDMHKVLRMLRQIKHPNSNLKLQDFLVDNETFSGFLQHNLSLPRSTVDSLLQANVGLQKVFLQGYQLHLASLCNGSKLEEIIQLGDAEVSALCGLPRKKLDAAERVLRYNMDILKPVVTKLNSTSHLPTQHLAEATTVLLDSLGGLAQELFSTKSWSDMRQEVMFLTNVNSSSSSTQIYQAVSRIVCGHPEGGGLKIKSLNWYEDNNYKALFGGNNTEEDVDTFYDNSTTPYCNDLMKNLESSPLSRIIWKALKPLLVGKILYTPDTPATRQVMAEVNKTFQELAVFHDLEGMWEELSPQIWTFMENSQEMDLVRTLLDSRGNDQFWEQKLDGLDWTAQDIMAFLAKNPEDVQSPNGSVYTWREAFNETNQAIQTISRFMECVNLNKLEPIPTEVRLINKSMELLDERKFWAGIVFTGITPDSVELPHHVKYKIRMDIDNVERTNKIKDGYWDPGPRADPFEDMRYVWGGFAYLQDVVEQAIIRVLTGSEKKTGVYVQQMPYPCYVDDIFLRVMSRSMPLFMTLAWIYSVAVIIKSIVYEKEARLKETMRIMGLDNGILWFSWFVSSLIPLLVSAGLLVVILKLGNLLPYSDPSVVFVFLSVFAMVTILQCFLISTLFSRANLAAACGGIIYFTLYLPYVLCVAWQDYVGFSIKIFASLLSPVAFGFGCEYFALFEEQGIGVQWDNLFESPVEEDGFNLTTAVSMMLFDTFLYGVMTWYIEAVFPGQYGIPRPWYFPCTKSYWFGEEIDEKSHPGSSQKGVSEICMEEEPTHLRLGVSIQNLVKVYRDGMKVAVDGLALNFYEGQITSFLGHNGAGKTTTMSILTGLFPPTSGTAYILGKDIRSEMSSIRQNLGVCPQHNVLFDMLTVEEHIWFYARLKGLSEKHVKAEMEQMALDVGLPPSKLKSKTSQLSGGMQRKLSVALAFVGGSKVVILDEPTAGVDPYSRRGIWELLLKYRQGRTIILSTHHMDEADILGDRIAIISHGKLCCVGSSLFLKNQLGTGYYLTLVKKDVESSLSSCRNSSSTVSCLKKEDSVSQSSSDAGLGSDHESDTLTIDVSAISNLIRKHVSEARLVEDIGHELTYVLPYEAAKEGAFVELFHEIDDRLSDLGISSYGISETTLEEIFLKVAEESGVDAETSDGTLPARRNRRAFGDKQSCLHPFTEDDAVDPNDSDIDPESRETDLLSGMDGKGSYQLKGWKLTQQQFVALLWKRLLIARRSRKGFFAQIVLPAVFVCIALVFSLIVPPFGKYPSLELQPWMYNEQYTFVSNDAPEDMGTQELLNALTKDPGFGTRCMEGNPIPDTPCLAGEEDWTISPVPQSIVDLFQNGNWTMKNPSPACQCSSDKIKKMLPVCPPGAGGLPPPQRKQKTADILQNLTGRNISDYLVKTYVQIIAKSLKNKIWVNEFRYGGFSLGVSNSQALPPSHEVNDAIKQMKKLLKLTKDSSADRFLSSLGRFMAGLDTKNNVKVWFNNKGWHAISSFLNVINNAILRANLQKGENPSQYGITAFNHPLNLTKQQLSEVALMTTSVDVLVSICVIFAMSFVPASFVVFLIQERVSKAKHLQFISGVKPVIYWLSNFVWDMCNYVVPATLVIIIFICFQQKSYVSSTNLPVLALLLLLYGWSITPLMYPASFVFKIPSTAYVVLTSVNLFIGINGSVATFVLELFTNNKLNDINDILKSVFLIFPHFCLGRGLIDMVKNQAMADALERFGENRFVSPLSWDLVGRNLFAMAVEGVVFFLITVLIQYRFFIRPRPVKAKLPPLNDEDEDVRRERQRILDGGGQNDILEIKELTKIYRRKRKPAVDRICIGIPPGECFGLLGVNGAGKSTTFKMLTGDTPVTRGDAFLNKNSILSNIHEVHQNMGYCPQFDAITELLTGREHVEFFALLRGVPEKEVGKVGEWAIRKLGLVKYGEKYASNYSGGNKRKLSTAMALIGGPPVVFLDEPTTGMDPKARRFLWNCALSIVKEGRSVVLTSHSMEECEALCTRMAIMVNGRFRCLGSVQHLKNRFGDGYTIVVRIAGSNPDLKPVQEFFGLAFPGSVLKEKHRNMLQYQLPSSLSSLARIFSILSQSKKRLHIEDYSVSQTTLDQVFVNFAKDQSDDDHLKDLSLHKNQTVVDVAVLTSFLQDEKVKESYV
# ABCA1 (Mus musculus, UniProt P41233), sequence (P41233 whole entry): as above
molecule,measurement,setting,value
CC(C)[C@H](N)C(=O)O [Valine],Hydrophobicity,[1],0.825
NCC(=O)O [Glycine],Hydrophobicity,[1],0.501
"EVRSKLEEWFAAFREFFEEFLARLKS (S1 amphipathic alpha-helix polypeptide core sequence selectively binds HDL, high-affinity ligand for ATP- binding cassette transporter A1 (ABCA1), ABCA1-lipid cholesterol efflux, ABCA1-stablization, anti-oxidant and anti-inflammatory activity) [SEQ ID NO:5]",cholesterol efflux efficiency/potency on per molecule (molar) basis versus apolipoproteins,ABCA1 [2]; Km in molar units,"activity similar to full-length Apo A-I, Apo E, and the C-terminal (CT) domain of Apo E"
same,cholesterol efflux from macrophages not induced for ABCA1 (non-specific),ABCA1 [2],Low efflux
same,non-specific efflux activity in the absence of ABCA1,ABCA1 [3],minimal
same,requirement of ABCA1 for cholesterol efflux activity,ABCA1 [3],required ABCA1 for efflux activity
CSCC[C@H](N)C(=O)O [Methionine],Hydrophobicity,[1],0.738
N[C@@H](Cc1c[nH]cn1)C(=O)O [Histidine],Hydrophobicity,[1],0.165
N=C(N)NCCC[C@H](N)C(=O)O [Arginine],Hydrophobicity,[1],0.000
N[C@@H](Cc1c[nH]c2ccccc12)C(=O)O [Tryptophan],Hydrophobicity,[1],0.878
NC(=O)C[C@H](N)C(=O)O [Asparagine],Hydrophobicity,[1],0.236
C[C@@H](O)[C@H](N)C(=O)O [Threonine],Hydrophobicity,[1],0.450
"Apo A-I: full-length Apolipoprotein AI, polypeptide comprising 243 amino acids",cholesterol efflux at low mass concentrations,ABCA1 [2]; increasing concentrations based on mass,largely ineffective
same,requirement of ABCA1 for cholesterol efflux activity,ABCA1 [3],required ABCA1 for activity
N[C@@H](Cc1ccccc1)C(=O)O [Phenylalanine],Hydrophobicity,[1],1.00
"S4, 26>A: SEQ ID NO:4 with serine to alanine substitutions at positions 4 and 26 (EVRAKLEEWFAAFREFAEEFLARLKA; ATI-5261 amphipathic alpha-helix polypeptide core sequence selectively binds HDL, high-affinity ligand for ATP-binding cassette transporter A1 (ABCA1), ABCA1-lipid cholesterol efflux, ABCA1-stablization, anti-oxidant and anti- inflammatory activity)",ABCA1-dependent cholesterol efflux,ABCA1 [2],retained ABCA1-dependent cholesterol efflux activity
"E8, 15>D: SEQ ID NO:5 with glutamic acid at positions 8 and 15 replaced with aspartic acid (EVRSKLEDWFAAFRDFFEEFLARLKS; S1 amphipathic alpha-helix polypeptide core sequence selectively binds HDL, high-affinity ligand for ATP- binding cassette transporter A1 (ABCA1), ABCA1-lipid cholesterol efflux, ABCA1-stablization, anti-oxidant and anti-inflammatory activity)",ABCA1-dependent cholesterol efflux,ABCA1 [2],retained high capacity to stimulate cholesterol efflux in an ABCA1-dependent manner
SKLRALFEEAFERFAAFWEELKSRVE ([dS][dK][dL][dR][dA][dL][dF][dE][dE][dA][dF][dE][dR][dF][dA][dA][dF][dW][dE][dE][dL][dK][dS][dR][dV][dE]),ABCA1-dependent cholesterol efflux,ABCA1 [2],stimulate ABCA1 cholesterol efflux in a ABCA1-dependent manner
O=C(O)[C@@H]1CCCN1 [Proline],Hydrophobicity,[1],0.711
NCCCC[C@H](N)C(=O)O [Lysine],Hydrophobicity,[1],0.283
EVRSKLEEWFAAFREFAEEFLARLKS ([dE][dV][dR][dS][dK][dL][dE][dE][dW][dF][dA][dA][dF][dR][dE][dF][dA][dE][dE][dF][dL][dA][dR][dL][dK][dS]),ABCA1-dependent cholesterol efflux,ABCA1 [2],promoted ABCA1 cholesterol efflux
same,ABCA1-dependent cholesterol efflux,ABCA1 [2]; listed as D-amino acid analog of SEQ ID NO:4,stimulate ABCA1 cholesterol efflux in a ABCA1-dependent manner
N[C@@H](CCC(=O)O)C(=O)O [Glutamate],Hydrophobicity,[1],0.043
N[C@@H](Cc1ccc(O)cc1)C(=O)O [Tyrosine],Hydrophobicity,[1],0.880
CC[C@H](C)[C@H](N)C(=O)O [Isoleucine],Hydrophobicity,[1],0.943
"SKLRALFEEAFERFAAFWEELKSRVE (inverted peptide, ATI-5261 in reverse order)",ABCA1-dependent cholesterol efflux at 30 μg/ml,ABCA1 [2]; 30 μg/ml peptide,stimulated cholesterol efflux in an ABCA1-dependent manner
"EVRSKLEEWFAAFREFFEEFLARL (amphipathic alpha-helix polypeptide core sequence selectively binds HDL, high-affinity ligand for ATP- binding cassette transporter A1 (ABCA1), ABCA1-lipid cholesterol efflux, ABCA1-stablization, anti-oxidant and anti-inflammatory activity) [24-mer]",capacity to stimulate cholesterol efflux at 3 μg/ml,"ABCA1 [2]; 3 μg/ml lipid-free peptide, ABCA1-expressing macrophages",retained high capacity to stimulate cholesterol efflux; also recorded: retained high activity
same,efficiency of ABCA1 cholesterol efflux (concentration dependence),ABCA1 [2]; concentration dependence curves,high efficience
same,ABCA1-dependent cholesterol efflux,ABCA1 [2],stimulated cholesterol efflux in an ABCA1-dependent manner
C[C@H](N)C(=O)O [Alanine],Hydrophobicity,[1],0.616
"R3>F: SEQ ID NO:4 polypeptides with arginine at position 3 replaced by phenylalanine (EVFSKLEEWFAAFREFAEEFLARLKS; ATI-5261 amphipathic alpha-helix polypeptide core sequence selectively binds HDL, high-affinity ligand for ATP-binding cassette transporter A1 (ABCA1), ABCA1-lipid cholesterol efflux, ABCA1-stablization, anti-oxidant and anti- inflammatory activity)",ABCA1-dependent cholesterol efflux,ABCA1 [2],relatively high-levels of cholesterol efflux
same,cholesterol efflux from macrophages not induced for ABCA1 (non-specific),ABCA1 [2],low-levels of cholesterol efflux
"EVRSKLEDWFAAFRDFFEEFLARLKS [E8, 15>D analog of the polypeptide of SEQ ID NO:5]",cholesterol efflux: concentration giving maximal efflux,[4],3 µg/mL
[dE][dV][dR][dS][dK][dL][dE][dE][dW][dF][dA][dA][dF][dR][dE][dF][dA][dE][dE][dF][dL][dA][dR][dL][dK][dS] [polypeptide of SEQ ID NO:4 composed of all D-amino acids],cholesterol efflux: concentration giving maximal efflux,[4],3 µg/mL
"EVRAKLEEWFAAFREFAEEFLARLKA [S4, 26>A analog of the polypeptide of SEQ ID NO:4]",cholesterol efflux: concentration giving maximal efflux,[4],3 µg/mL
EVRSKLEEWFAAFREFAEEFLARLKY [S26>Y analog of the polypeptide of SEQ ID NO:4],cholesterol efflux: concentration giving maximal efflux,[4],3 µg/mL
"EVKSKLEEWFAAFKEFFEEFLAKLKS [R3, 14, 23→K3, 14, 23 analog of the polypeptide of SEQ ID NO:5]",cholesterol efflux: concentration giving maximal efflux,[4],3 µg/mL
EVRAKLEEWFAAFREFAEEFLARL [24-mer core peptide of SEQ ID NO:4 with the S4>A substitution],cholesterol efflux: concentration giving maximal efflux,[4],3 µg/mL
"DVRSKLDDWFAAFRDFFDDFLARLKS [E1, 7, 8, 15, 18, 19>D analog of the polypeptide of SEQ ID NO:5]",cholesterol efflux: concentration giving maximal efflux,[4],3 µg/mL
"[dS][dK][dL][dR][dA][dL][dF][dE][dE][dA][dF][dE][dR][dF][dA][dA][dF][dW][dE][dE][dL][dK][dS][dR][dV][dE] [inverted sequence peptide of SEQ ID NO:20, all D-amino acids]",cholesterol efflux: concentration giving maximal efflux,[4],3 µg/mL
"SKLRALFEEAFERFAAFWEELKSRVE [inverted sequence peptide of SEQ ID NO:20, all L-amino acids]",cholesterol efflux: concentration giving maximal efflux,[4],3 µg/mL
EVRSKLEEWFAAFREFFEEFLARL [24-mer polypeptide of SEQ ID NO:5 lacking Lys25-Ser26],cholesterol efflux: concentration giving maximal efflux,[4],3 µg/mL
